Measured values: paper PMC11687307, “The calcium-binding protein S100A1 binds to titin’s N2A insertion sequence in a pH-dependent manner” (The Journal of General Physiology, 2024)

B1: S100A1 (mouse) (natural protein)
chain: MGSELESAMETLINVFHAHSGQEGDKYKLSKKELKDLLQTELSGFLDVQKDADAVDKVMKELDENGDGEVDFKEYVVLVAALTVACNNFFWETS
notes: S100A1, mouse; No tag is named; source: E. coli BL21(DE3), purified (Capto-Q anion exchange, phenyl Sepharose)
B2: UN2A, unique insertion sequence of the N2A region of titin (mouse, amino acids 8539-8655) (domain or fragment)
chain: DERKKQEKIEGDLRAMLKKTPALKKGSGEEEEIDIMELLKNVDPKEYEKYARMYGITDFRGLLQAFELLKQSQEEETHRLEIEELEKSERDEKEFEELVAFIQQRLTQTEPVTLIKD
notes: titin, mouse, UN2A region between Ig domains I80 and I81, amino acids 8539-8655; Gene synthesised by GeneArt; No tag is named; source: E. coli BL21(DE3) pLysS, purified (Capto-Q anion exchange, SEC)

Experiments:
Conditions in all cases: both partners purified
[1] = molecular target: B2; test: SPR; UN2A immobilised on carboxyl sensor (OpenSPR), S100A1 injected at 5 to 100 µM; 25°C; 250 mM NaCl, 20 mM HEPES, 0.05% Tween; pCa 3, pH 7.4; 1:1 model
[2] = molecular target: B2; test: SPR; UN2A immobilised on carboxyl sensor (OpenSPR), S100A1 injected at 5 to 100 µM; 25°C; 250 mM NaCl, 20 mM HEPES, 0.05% Tween; pCa 5, pH 6.0; 1:1 model
[3] = molecular target: B2; test: SPR; UN2A immobilised on carboxyl sensor (OpenSPR), S100A1 injected; 25°C; pCa 3, pH 6.5; 1:1 model
[4] = molecular target: B2; test: SPR; UN2A immobilised on carboxyl sensor (OpenSPR), S100A1 injected at 5 to 100 µM; 25°C; 250 mM NaCl, 20 mM HEPES, 0.05% Tween; pCa 5, pH 7.4; 1:1 model
[5] = molecular target: B2; test: SPR; UN2A immobilised on carboxyl sensor (OpenSPR), S100A1 injected at 5 to 100 µM; 25°C; 250 mM NaCl, 20 mM HEPES, 0.05% Tween; pCa 3, pH 6.0; 1:1 model
S100A1 (mouse) = molecular target: B1; test: co-IP; purified proteins, 500 µg each, with anti-S100A1 antibody overnight at 4°C, captured on magnetic beads; 250 mM NaCl, 20 mM HEPES, 1 mM Ca^2+, pH 6; SDS-PAGE, silver staining, densitometry

B1
Kd [1]: 21.6 µM | Kd [2]: 174 µM | Kd [3]: 9.95 µM | Kd [4]: 285 µM | Kd [5]: 5 µM

B2
band intensity of UN2A relative to the S100A1 band (densitometry) (S100A1 (mouse)): 25% | binding ratio of UN2A to S100A1 in the complex (densitometry) (S100A1 (mouse)): ~0.25 UN2A per S100A1
